Values of other authors, collected in PMC2613885.

Target: Robo1 (Homo sapiens) (UniProt Q9Y6N7)
Sequence (Q9Y6N7 26-897): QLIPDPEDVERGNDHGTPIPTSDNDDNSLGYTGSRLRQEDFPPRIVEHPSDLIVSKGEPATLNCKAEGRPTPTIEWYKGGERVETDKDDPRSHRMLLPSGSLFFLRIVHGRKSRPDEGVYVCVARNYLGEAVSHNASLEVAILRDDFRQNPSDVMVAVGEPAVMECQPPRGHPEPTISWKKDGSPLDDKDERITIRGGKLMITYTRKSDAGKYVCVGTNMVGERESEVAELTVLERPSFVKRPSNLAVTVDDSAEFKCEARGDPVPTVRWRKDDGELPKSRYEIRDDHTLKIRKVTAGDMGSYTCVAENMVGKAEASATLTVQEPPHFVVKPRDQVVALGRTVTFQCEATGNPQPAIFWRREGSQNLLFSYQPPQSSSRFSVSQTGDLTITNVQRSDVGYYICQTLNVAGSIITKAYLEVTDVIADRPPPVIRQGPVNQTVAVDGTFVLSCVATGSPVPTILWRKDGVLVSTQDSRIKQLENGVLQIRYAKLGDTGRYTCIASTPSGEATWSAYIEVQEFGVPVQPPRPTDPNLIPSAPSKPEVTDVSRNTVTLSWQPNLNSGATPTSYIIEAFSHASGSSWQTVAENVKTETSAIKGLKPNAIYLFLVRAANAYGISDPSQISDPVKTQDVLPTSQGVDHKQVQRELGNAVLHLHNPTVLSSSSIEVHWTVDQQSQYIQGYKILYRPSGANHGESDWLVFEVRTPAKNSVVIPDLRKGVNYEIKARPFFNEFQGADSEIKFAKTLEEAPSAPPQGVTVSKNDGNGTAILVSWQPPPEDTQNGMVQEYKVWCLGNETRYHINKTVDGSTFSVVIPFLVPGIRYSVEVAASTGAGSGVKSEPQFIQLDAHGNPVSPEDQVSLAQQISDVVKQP

Slit2, sequence (O94813 31-1529): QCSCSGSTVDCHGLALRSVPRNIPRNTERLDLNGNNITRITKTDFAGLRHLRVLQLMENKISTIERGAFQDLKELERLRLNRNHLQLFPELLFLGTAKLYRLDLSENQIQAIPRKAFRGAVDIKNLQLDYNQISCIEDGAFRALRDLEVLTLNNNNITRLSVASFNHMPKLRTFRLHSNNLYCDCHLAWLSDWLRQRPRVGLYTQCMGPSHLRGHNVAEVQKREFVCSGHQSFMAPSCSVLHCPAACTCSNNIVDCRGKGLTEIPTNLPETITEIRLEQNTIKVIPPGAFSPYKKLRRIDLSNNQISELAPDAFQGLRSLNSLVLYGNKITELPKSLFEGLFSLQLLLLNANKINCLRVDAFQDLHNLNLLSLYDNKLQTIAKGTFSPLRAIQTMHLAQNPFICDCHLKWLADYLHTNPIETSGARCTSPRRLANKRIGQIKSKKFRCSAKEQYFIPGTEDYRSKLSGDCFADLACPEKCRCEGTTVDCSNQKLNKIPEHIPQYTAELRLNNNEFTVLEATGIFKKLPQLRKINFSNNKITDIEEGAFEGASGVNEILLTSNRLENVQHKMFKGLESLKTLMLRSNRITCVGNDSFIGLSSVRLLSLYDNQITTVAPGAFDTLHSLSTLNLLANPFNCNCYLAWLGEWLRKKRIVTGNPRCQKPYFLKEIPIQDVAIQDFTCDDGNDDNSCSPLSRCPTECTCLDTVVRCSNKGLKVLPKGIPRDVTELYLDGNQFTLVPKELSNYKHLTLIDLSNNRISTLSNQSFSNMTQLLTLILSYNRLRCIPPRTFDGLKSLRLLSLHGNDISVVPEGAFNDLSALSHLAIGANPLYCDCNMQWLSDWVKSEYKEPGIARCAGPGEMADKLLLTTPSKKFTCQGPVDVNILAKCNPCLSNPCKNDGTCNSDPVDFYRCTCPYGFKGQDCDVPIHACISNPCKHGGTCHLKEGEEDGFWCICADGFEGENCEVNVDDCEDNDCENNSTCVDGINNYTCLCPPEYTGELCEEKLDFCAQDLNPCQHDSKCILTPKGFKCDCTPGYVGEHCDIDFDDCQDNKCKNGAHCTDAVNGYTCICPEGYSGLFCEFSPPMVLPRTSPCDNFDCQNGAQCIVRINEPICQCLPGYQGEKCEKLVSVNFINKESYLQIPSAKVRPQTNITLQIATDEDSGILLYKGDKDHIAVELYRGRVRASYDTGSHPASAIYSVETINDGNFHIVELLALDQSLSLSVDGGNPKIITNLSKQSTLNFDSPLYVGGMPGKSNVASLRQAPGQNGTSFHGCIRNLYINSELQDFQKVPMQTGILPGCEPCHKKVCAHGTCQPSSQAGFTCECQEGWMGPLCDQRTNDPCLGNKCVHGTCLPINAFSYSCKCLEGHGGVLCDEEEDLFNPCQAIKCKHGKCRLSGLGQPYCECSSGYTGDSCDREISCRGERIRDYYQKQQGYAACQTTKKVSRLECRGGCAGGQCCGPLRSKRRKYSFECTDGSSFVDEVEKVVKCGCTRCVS

In the case of Slit2 (from UniProt O94813), the Kd is listed as 9 nM.
